Source: patent publication US20210380678A1 (SURROZEN OPERATING, published 2021)
Substitutions are numbered along the chain they refer to.

T1: human RNF43 extracellular domain (hRNF43 ECD) (human, UniProt Q68DV7 44-197, biotinylated (His-Avi tag))
T1 construct: Expressed with a His-Avi tag at the N-terminus and biotinylated; also called human RNF3 (Q44-D198)
T1 sequence: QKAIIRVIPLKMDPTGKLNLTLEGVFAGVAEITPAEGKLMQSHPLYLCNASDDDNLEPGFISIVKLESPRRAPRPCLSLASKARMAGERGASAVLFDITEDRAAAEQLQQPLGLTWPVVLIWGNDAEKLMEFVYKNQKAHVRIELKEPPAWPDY

T2: human ZNRF3 extracellular domain (hZNRF3 ECD) (human, UniProt Q9ULT6 56-219, biotinylated (His-Avi tag))
T2 construct: Expressed with a His-Avi tag at the N-terminus and biotinylated; also called ZRNF3
T2 sequence: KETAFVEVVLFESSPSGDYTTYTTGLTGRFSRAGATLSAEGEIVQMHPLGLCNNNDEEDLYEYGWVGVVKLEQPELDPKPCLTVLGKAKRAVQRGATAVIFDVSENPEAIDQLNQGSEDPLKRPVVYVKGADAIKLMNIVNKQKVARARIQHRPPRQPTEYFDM

B1: 024S-A02 (antibody, V domains shown)
VH: EVQLVQSGAEVKKPGASVKVSCKASGYTFTSYAMHWVRQAPGQRLEWMGWINAGNGNTKYSQTFQGRVTITRDTSASTAYMELSSLRSEDTAVYYCARDLMVRGGPPFDYWGQGTLVTVSS
VL: not shown
B2: 028S-G01 (antibody, V domains shown)
VH: QVQLVQSGAEVKKPGASVKVSCKASGYTFTNYYMHWVRQAPGQGLEWMGWINPHSGGTNYAQKFQGRVTMTRDTSTSTVYMELSSLRSEDTAVYYCAREDYNWNDGWFDPWGQGTLVTVSS
VL: DIQMTQSPSSLSASVGDRVTITCRASENIHKYLNWYQQKPGKAPKLLIYAASSLQSGVPSRFSGSGSGTDFTLTISSLQPEDFATYYCQQGYSTPYTFGQGTKLEIK
B3: 020S-E06 (antibody, V domains shown)
VH: QVQLVQSGAEVKKPGASVKVSCKASGYTFTGYYMHWVRQAPGQGLEWMGIINPSGGSTSYAQKFQGRVTMTRDTSTSTVYMELSSLRSEDTAVYYCARGRQGVWDYWGRGTLVTVSS
VL: DIQMTQSPSSLSASVGDRVTITCRSSQSIRTYLNWYQQKPGKAPKLLIYAASTLQSGVPSRFSGSGSGTDFTLTISSLQPEDFATYYCQQANSFPITFGGGTKVEIK
B4: 020S-F06 (antibody, V domains shown)
VH: QVQLVQSGAEVKKPGASVKVSCKASGYTFTSYYLHWVRQAPGQGLEWMGWMNPNSGNTGYAQNFQGRVTMTRDTSTSTVYMELSSLRSEDTAVYYCARGDFWSGYYPYYYYYYGMDVWGQGTTVTVSS
VL: B3 VL with S25V, S28G, R30S, T31S, A91S, N92Y, S93G, F94A, I96L, G100Q
B5: 028S-B01 (antibody, V domains shown)
VH: QVQLVQSGAEVKKPGASVKVSCKASGYTFTAYYMHWVRQAPGQGLEWMGIINPNGGRTTYAQKFQGRVTMTRDTSTSTVYMELSSLRSEDTAVYYCARSFGVAGTLDYWGQGTLVTVSS
VL: DIVMTQSPLSLPVTPGEPASISCRSSQSLLHSNGYNYLDWYLQKPGQSPQLLIYDASNLETGVPDRFSGSGSGTDFTLKISRVEAEDVGVYYCMQTLHTPYTFGQGTKLEIK
B6: 028S-E08 (antibody, V domains shown)
VH: EVQLLESGGGLVQPGGSLRLSCAASGFSFSNYAMSWVRQAPGKGLEWVSAISGSGRTTYYADSVKGRFTISRDNSKNTLYLQMNSLRAEDTAVYYCARRTSSFSLWGQGTLVTVSS
VL: DIQMTQSPSSLSASVGDRVTITCRASQSINNWLAWYQQKPGKAPKLLIYKASSLESGVPSRFSGSGSGTDFTLTISSLQPEDFATYYCQQANTFPITFGQGTRLEIK
B7: 028S-A09 (antibody, V domains shown)
VH: QVQLVQSGAEVKKPGASVKVSCKASGYRFTSYYLHWVRQAPGQGLEWMGWMNPKSGGTNYAQKFQGRVTMTRDTSTSTVYMELSSLRSEDTAVYYCARGGRSYGYWYFDLWGRGTLVTVSS
VL: EIVMTQSPATLSVSPGERATLSCRASQSVDSSYLAWYQQKPGQAPRLLIYAASARAAGIPARFSGSGSGTEFTLTISSLQSEDFAVYYCQQYYRSPPTFGQGTRLEIK
B8: 028S-D02 (antibody, V domains shown)
VH: QVQLQQSGPGLVKPSQTLSLTCAISGDSVSSNSAAWYWIRQSPSRGLEWLGRTYYRSKWYHDYAVSVKSRITINADTSKNQFSLQLNSVTPEDTAVYYCARVVRAVDAFDIWGQGTMVTVSS
VL: ETTLTQSPGTLSLSPGERATLSCRASQSVNSRYLAWYQQKPGQAPRLLIYGASSRATGIPDRLTGSGSGTDFTLTISRLEPEDFAVYYCQQYGSSRLTFGGGTKVEIK
B9: 028S-A04 (antibody, V domains shown)
VH: QVQLVQSGAEVKKPGASVKVSCKASGYTFTNYKMHWVRQAPGQGLEWMGKINPSSGSTSYAQKFQGRVTMTRDTSTSTVYMELSSLRSEDTAVYYCARSGAGMWYFDLWGRGTLVTVSS
VL: B2 VL with E27Q, N28D, H30Y, K31R, Y49F, Q55H, G91S, S93T, Y96I, L104V
B10: 028S-B07 (antibody, V domains shown)
VH: QVQLVQSGAEVKKPGASVKVSCKASGYTFTEYYMHWVRQAPGQGLEWMGWMNPNSGHAGSAQKFQGRVTMTRDTSTSTVYMELSSLRSEDTAVYYCARGRRSGLSPPAYWGQGTLVTVSS
VL: EIVMTQSPATLSVSPGERATLSCRASQSVSASLAWYQQKPGQAPRLLIYGASTRATGIPARFSGSGSGTEFTLTISSLQSEDFAVYYCHQYFSPPMTFGQGTRLEIK
B11: 028S-H04 (antibody, V domains shown)
VH: QVQLVQSGAEVKKPGASVKVSCKASGYTFIGYYMHWVRQAPGQGLEWLGWVNPKNGHTGYAQKFQGRVTMTRDTSTSTVYMELSSLRSEDTAVYYCAKDLEHTGYSSGWAGFDYWGQGTLVTVSS
VL: not shown
B12: 028S-C03 (antibody, V domains shown)
VH: QVQLVQSGAEVKKPGASVKVSCKASGYTFSRYFMHWVRQAPGQGLEWMGWINPNSGGTRYAQNLQGRVTMTRDTSTSTVYMELSSLRSEDTAVYYCARDQKGKSSSWFRFDPWGQGTLVTVSS
VL: not shown
B13: 028S-E04 (antibody, V domains shown)
VH: EVQLLESGGGLVQPGGSLRLSCAASGFTFNNFGMSWVRQAPGKGLEWVSGISASGRNTYYADSVKGRFTISRDNSKNTLYLQMNSLRAEDRAVYYCARETRHGSDYWGQGTLVTVSS
VL: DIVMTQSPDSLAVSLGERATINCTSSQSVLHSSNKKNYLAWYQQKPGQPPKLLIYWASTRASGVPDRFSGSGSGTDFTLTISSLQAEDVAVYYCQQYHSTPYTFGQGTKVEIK
B14: 028S-G10 (antibody, V domains shown)
VH: QVQLVQSGAEVKKPGASVKVSCKASGYTFTSYGVSWVRQAPGQGLEWMGIINPRGGSTSYAQNFQGRVTMTRDTSTSTVYMELSSLRSEDTAVYYCARYSSSWSWPFDYWGQGTLVTVSS
VL: DIQMTQSPSSLSASVGDRVTITCRASQGISNNLNWYQQKPGKAPKLLIYAASTLQSGVPSRFSGSGSGTDFTLTISSLQPEDFATYYCQQSYSTPTFGQGTKVEIK
B15: 028S-B04 (antibody, V domains shown)
VH: B3 VH with T30R, G31R, Y33P, G99D, R100K, Q101V, V103A, W104I, R109Q
VL: B2 VL with E27Q, N28G, H30S, K31N, N34A, S56R, G91S, Y96L, Q100G, L104V
B16: 028S-C04 (antibody, V domains shown)
VH: B3 VH with G31R, R100G, Q101S, V103W, W104L, R109Q
VL: B3 VL with S25A, R30S, Y32W, N34A, A91S, N92Y, F94S, I96L
B17: 028S-D04 (antibody, V domains shown)
VH: QVQLVQSGAEVKKPGASVKVSCKASGGTFSSYAISWVRQAPGQGLEWMGRISPNRGGTKYAQKFQGRVTMTRDTSTSTVYMELSSLRSEDTAVYYCARDSWLRGAWGYWGQGTLVTVSS
VL: B2 VL with E27Q, N28S, H30S, K31R, Y32W, N34A, S53T, G91S, Y92F, L104V
B18: 028S-D09 (antibody, V domains shown)
VH: B3 VH with G31R, Y32H, R100S, Q101L, V103Y, W104F, Y106L
VL: not shown
B19: 028S-A11 (antibody, V domains shown)
VH: QVQLVQSGAEVKKPGASVKVSCKASGGTFSGYYMHWVRQAPGQGLEWMGWINPNRGGTSYAQNFQGRVTMTRDTSTSTVYMELSSLRSEDTAVYYCARGMYSSSWLRYWGQGTLVTVSS
VL: B2 VL with E27Q, N28G, H30S, K31N, N34A, Y92S, T94F, Y96L, L104V, E105D
B20: 028S-B06 (antibody, V domains shown)
VH: QVQLVQSGAEVKKPGASVKVSCKASGYRFTNYYMHWVRQAPGQGLEWMGWISPNSGATNYAQNFQGRVTMTRDTSTSTVYMELSSLRSEDTAVYYCARGGRTTVTTMAYWGQGTLVTVSS
VL: B5 VL with D55G, N58S, E60Q, T61S, T96G, L97T, T99W, Y101R, L109V, E110D
B21: 028S-G06 (antibody, V domains shown)
VH: EVQLLESGGGLVQPGGSLRLSCAASGFAFSNFAMIWVRQAPGKGLEWVSAISGSGGSTYYADSVKGRFTISRDNSKNTLYLQMNSLRAEDTAVYYCARLRANYGMDVWGQGTTVTVSS
VL: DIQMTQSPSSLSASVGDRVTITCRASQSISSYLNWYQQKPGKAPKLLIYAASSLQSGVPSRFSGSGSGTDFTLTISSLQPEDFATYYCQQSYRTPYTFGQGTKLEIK

Target: T1, human RNF43 extracellular domain …
Experiment: ELISA (binding specificity)

| Binder | binding result |
| --- | --- |
| B1 | binds |
| B2 | binds |
| B3 | binds |
| B4 | binds |
| B5 | binds |

Target: T2, human ZNRF3 extracellular domain …
Experiment: BLI (Octet) KD grade: * = KD >= 1 uM
Method: (§1) Binding characterization of recombinant Fabs or IgG' s was carried out using Bio-Layer Interferometry (BLI) using the Octet Red 96 platform (PALL ForteBio, Fremont, Calif.) with streptavidin (SA) coated biosensors (PALL ForteBio,). […] Following immobilization, sensors were dipped into samples containing test molecules at seven concentrations. Values for KD were determined by fitting the resulting data with a 1:1 binding model.

| Binder | KD [nM] |
| --- | --- |
| B6 | ≥ 1000 |
| B7 | ≥ 1000 |
| B8 | ≥ 1000 |

Target: T2, human ZNRF3 extracellular domain …
Experiment: BLI (Octet) KD grade: *** = 100 nM > KD
Method: as §1

| Binder | KD [nM] |
| --- | --- |
| B9 | < 100 |
| B10 | < 100 |
| B11 | < 100 |
| B12 | < 100 |
| B13 | < 100 |

Target: T2, human ZNRF3 extracellular domain …
Experiment: BLI (Octet) KD grade: ** = 1 uM > KD >= 100 nM
Method: as §1

| Binder | KD [nM] |
| --- | --- |
| B14 | 100 to 1000 |
| B15 | 100 to 1000 |
| B16 | 100 to 1000 |
| B17 | 100 to 1000 |
| B18 | 100 to 1000 |
| B19 | 100 to 1000 |
| B20 | 100 to 1000 |
| B21 | 100 to 1000 |

Target: T2, human ZNRF3 extracellular domain …
Experiment: BLI (Octet), biotinylated antigen on SA sensor, 1:1 fit
Method: as §1

| Binder | Kd [nM] |
| --- | --- |
| B9 | 36.2 |
| B10 | 65.4 |
| B14 | 684 |
| B15 | 256 |
| B16 | 164 |
| B17 | 874 |
| B18 | 354 |
| B6 | 3900 |
| B19 | 203 |
| B11 | 48 |
| B7 | 12500 |
| B20 | 764 |
| B12 | 25.1 |
| B13 | 95.3 |
| B8 | 3320 |
| B21 | 109 |
